Test results as given in the supplement of paper PMC10057847, “Precision engineering of biological function with large-scale measurements and machine learning” (PLOS ONE, 2023).
± gives the uncertainty stated by the source.

B1: library; the commonest letter at each place (parent)
chain: MKPVTLYDVAEYAGVSYQTVSRVVNQASHVSAKTREKVEAAMAELNYIPNRVAQQLAGKQSLLIGVATSSLALHAPSQIVAAIKSRADQLGASVVVSMVERSGVEACKAAVHNLLAQRVSGLIINYPLDDQDAIAVEAACTNVPALFLDVSDQTPINSIIFSHEDGTRLGVEHLVALGHQQIALLAGPLSSVSARLRLAGWHKYLTRNQIQPIAEREGDWSAMSGFQQTMQMLNEGIVPTAMLVANDQMALGAMRAITESGLRVGADISVVGYDDTEDSSCYIPPLTTIKQDFRLLGQTSVDRLLQLSQGQAVKGNQLLPVSLVKRKTTLAPNTQTASPRALADSLMQLARQVSRLESGQ

Assays:
Details in all cases: with IPTG
IPTG [1] = variants of: B1
Experimental: (§1)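 LacI variants on the pVER plasmid regulate eYFP behind lacO in E. coli MG1655Δlac, grown in rich M9 at 37 °C with a 2-fold IPTG dilution series. After two 160-min growth steps, YFP is read by flow cytometry and calibrated to MEF. Bayesian MCMC fits of the Hill equation give G0, G∞, EC50 and n (posterior mean ± SD).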

IPTG [2] = variants of: B1; experiment: Hill coefficient n (dimensionless); higher = steeper dose response
Experimental: as §1

IPTG [3] = variants of: B1; experiment: basal output G0 (YFP, no IPTG) (log10 MEF); higher = higher reporter expression without inducer
Experimental: as §1

IPTG [4] = variants of: B1; experiment: saturating output G-infinity (YFP) (log10 MEF); higher = higher reporter expression at saturating IPTG
Experimental: as §1

Variant	EC50 for IPTG (log10 µmol/L) (IPTG [1])	Hill coefficient n (IPTG [2])	basal output G0 (log10) (IPTG [3])	saturating output G-infinity (log10) (IPTG [4])
S97T V136E	1.37 ± 0.038	1.42 ± 0.12	3.05 ± 0.078	4.331 ± 0.013
F161S	1.12 ± 0.017	1.43 ± 0.047	3.04 ± 0.036	4.464 ± 0.0055
F161V	2.58 ± 0.015	1.59 ± 0.044	1.98 ± 0.34	4.455 ± 0.0069
F161L	3.161 ± 0.0097	1.32 ± 0.022	1.83 ± 0.42	4.38 ± 0.0037
S70R S190C	1.547 ± 0.0043	1.47 ± 0.017	2.64 ± 0.029	4.2816 ± 0.0016
I83F	1.29 ± 0.02	1.43 ± 0.06	2.91 ± 0.064	4.434 ± 0.0071
I83M	2.555 ± 0.019	1.48 ± 0.049	1.45 ± 0.61	4.268 ± 0.0077
A109E D165V G166A R255C E259G	0.842 ± 0.018	1.33 ± 0.06	3.421 ± 0.019	4.417 ± 0.0048
A194V	3.35 ± 0.048	1.61 ± 0.06	2.01 ± 0.08	4.322 ± 0.041
S69T	1.7 ± 0.018	1.64 ± 0.06	2.07 ± 0.53	4.406 ± 0.0077
S69F	1.05 ± 0.042	1.51 ± 0.14	2.66 ± 0.67	4.379 ± 0.015
N125D	2.739 ± 0.019	1.27 ± 0.038	2.73 ± 0.035	4.445 ± 0.0072
S97T G200C	2.162 ± 0.012	1.65 ± 0.041	2.68 ± 0.043	4.442 ± 0.0057
R51H	1.19 ± 0.02	1.46 ± 0.061	3.701 ± 0.013	4.63 ± 0.0066
R51C	0.988 ± 0.036	1.44 ± 0.14	3.91 ± 0.021	4.49 ± 0.0086
S69F V95A A110E I159S	1.109 ± 0.01	1.64 ± 0.055	2.8 ± 0.081	4.2252 ± 0.003
S97T F161V	2.22 ± 0.032	1.59 ± 0.087	2.49 ± 0.21	4.47 ± 0.016
N208Y	2.01 ± 0.0066	1.64 ± 0.026	2.24 ± 0.14	4.4021 ± 0.003
A27T A87T S102G N316I L330P Q352R	1.04 ± 0.011	1.44 ± 0.038	3.624 ± 0.013	4.5229 ± 0.003
V9I R255C E259D T336I R355Q	1.05 ± 0.014	1.38 ± 0.044	3.374 ± 0.028	4.5116 ± 0.0042
M42I R51C	1.496 ± 0.014	1.6 ± 0.058	3.21 ± 0.035	4.511 ± 0.0051

Variant	EC50 for IPTG (log10 µmol/L) (IPTG [1])	Hill coefficient n (IPTG [2])	basal output G0 (log10) (IPTG [3])	saturating output G-infinity (log10) (IPTG [4])
D88G	2.671 ± 0.015	1.41 ± 0.046	0.914 ± 0.56	3.854 ± 0.0057
D88N	2.843 ± 0.028	1.33 ± 0.086	0.96 ± 0.58	3.479 ± 0.0093
L296R	4.37 ± 0.045	1.33 ± 0.051	2.995 ± 0.0098	4.383 ± 0.025
V15I F161I A266T K290R M347I	2.85 ± 0.076	1.46 ± 0.13	3.111 ± 0.019	4.369 ± 0.043
V80L S279T	1.566 ± 0.0048	1.56 ± 0.023	2.07 ± 0.088	3.9365 ± 0.0017
Y273H D278G Q335L E357G	3.07 ± 0.09	1.62 ± 0.14	2.16 ± 0.11	4.07 ± 0.075
A138T A214V V244L	1.808 ± 0.0078	1.61 ± 0.025	2.43 ± 0.047	4.4294 ± 0.0033
I83M S97T	2.18 ± 0.046	1.52 ± 0.16	1.25 ± 0.81	4.399 ± 0.017
I160N R263S L305Q	2.561 ± 0.022	1.61 ± 0.054	1.14 ± 0.59	4.285 ± 0.012
S70R S97T	1.16 ± 0.037	1.37 ± 0.1	3.15 ± 0.062	4.362 ± 0.012
T68I	1.41 ± 0.045	1.28 ± 0.1	3.24 ± 0.054	4.419 ± 0.015
L62M A109V D149E M242V P285S Q317R	2.91 ± 0.051	1.37 ± 0.066	2.56 ± 0.042	4.412 ± 0.028
D88Y A241V N246S L305M L319F P339T A341T L346S	2.73 ± 0.1	0.483 ± 0.058	4.455 ± 0.018	2.91 ± 1.1
E39D N208D A222V	1.37 ± 0.022	1.55 ± 0.079	3.1 ± 0.043	4.484 ± 0.0081
L169P	2.678 ± 0.026	1.34 ± 0.061	2.72 ± 0.067	4.3 ± 0.0095
A87P V301M E357G	2.37 ± 0.024	1.18 ± 0.053	4.51 ± 0.0073	3.619 ± 0.014
V95M Q335R Q360R	2.01 ± 0.05	1.49 ± 0.13	2.02 ± 0.65	4.169 ± 0.022
E11K A27G K37N H112L A139V S191P	2.26 ± 0.028	1.4 ± 0.06	3.373 ± 0.0099	4.426 ± 0.012
S190C	2.091 ± 0.0053	1.65 ± 0.019	2.31 ± 0.049	4.4474 ± 0.0025
V271M	2.089 ± 0.0097	1.64 ± 0.034	2.19 ± 0.19	4.413 ± 0.0046
I160F L185F	3.06 ± 0.056	1.77 ± 0.11	2.08 ± 0.16	4.19 ± 0.048

Variant	EC50 for IPTG (log10 µmol/L) (IPTG [1])	Hill coefficient n (IPTG [2])	basal output G0 (log10) (IPTG [3])	saturating output G-infinity (log10) (IPTG [4])
V24L V52M A72T A214V I268V K325Q P332H A337V	1.467 ± 0.0061	1.59 ± 0.03	2.62 ± 0.054	4.2255 ± 0.002
L56M Q317L	1.07 ± 0.085	1.44 ± 0.3	3.96 ± 0.044	4.485 ± 0.018
V136E	1.69 ± 0.034	1.5 ± 0.13	2.46 ± 0.36	4.015 ± 0.014
V96E T154I S158R V238D M254I V264I	2.37 ± 0.029	1.37 ± 0.067	4.479 ± 0.01	3.19 ± 0.03
I160N Q231H I289V D302E	2.6 ± 0.026	1.67 ± 0.073	2.06 ± 0.43	4.284 ± 0.015
V96M	2.315 ± 0.015	1.46 ± 0.048	1.73 ± 0.53	4.175 ± 0.006
P285S V301M S308P M347V	0.927 ± 0.019	1.33 ± 0.057	3.595 ± 0.017	4.489 ± 0.0054
Q60R N113S R207G R216G V271M L307I A350T	2.236 ± 0.011	1.62 ± 0.029	2.28 ± 0.058	4.401 ± 0.0051
Q181H	2.037 ± 0.0042	1.625 ± 0.015	2.24 ± 0.049	4.4146 ± 0.0018
Q89L S158C E172K Q291H	2.457 ± 0.021	1.33 ± 0.04	3.336 ± 0.007	4.341 ± 0.0086
E36V Q89H D132G A138D E277A Q306E S322T	2.315 ± 0.02	1.54 ± 0.044	2.12 ± 0.15	4.363 ± 0.01
N113D D132N T154R M242I V313A K314N R340S	2.033 ± 0.011	1.64 ± 0.048	1.59 ± 0.65	4.226 ± 0.0048
Q55K G121V N333I	1.78 ± 0.031	1.58 ± 0.092	2.37 ± 0.36	4.393 ± 0.012
S70R N208Y	1.444 ± 0.0064	1.46 ± 0.026	2.66 ± 0.045	4.2522 ± 0.0022
P76Q V150A N157D Q181H I210L M254T I283N	2.23 ± 0.046	1.11 ± 0.11	4.237 ± 0.007	3.925 ± 0.008
S279T	1.481 ± 0.012	1.48 ± 0.03	2.68 ± 0.034	4.458 ± 0.0048
V99E A116T T141I S190C	0.86 ± 0.015	1.33 ± 0.047	3.534 ± 0.013	4.454 ± 0.0039
M42I	2.437 ± 0.015	1.43 ± 0.046	0.821 ± 0.6	4.148 ± 0.0056
I64V V95M Q131R T141A D152E N208I A222T L295M K327N	0.469 ± 0.011	1.55 ± 0.075	3.589 ± 0.011	4.4894 ± 0.0031
G121V G261V	1.847 ± 0.017	1.58 ± 0.052	2.58 ± 0.083	4.418 ± 0.0075
V136E L169P	4.914 ± 0.028	2.33 ± 0.32	4.5429 ± 0.0026	1.85 ± 1.1
